Target: Mam1A_(107-213) (Mycobacterium tuberculosis H37Rv)
Test: SEC-MALS

Substance Mam1A_(107-213) (domain or fragment) has a stoichiometry N of 4.
